# Results as given in patent US20240117018A1.
# Legend:
# Assay in all cases: cell-based or functional assay
# [1] = molecular target: HIV-1 Env of pseudovirus 231966.c02 (HIV-1)
# [2] = molecular target: HIV-1 Env of pseudovirus 6540.v4.c1 (HIV-1)
# [3] = molecular target: HIV-1 Env of pseudovirus R2184.c04 (HIV-1)
# [4] = molecular target: HIV-1 Env of pseudovirus 620345.c01 (HIV-1)
# [5] = molecular target: HIV-1 Env of pseudovirus R3265.c06 (HIV-1)
# [6] = molecular target: HIV-1 Env of pseudovirus C3347.c11 (HIV-1)
# [7] = molecular target: HIV-1 Env of pseudovirus T257-31 (HIV-1)
# [8] = molecular target: HIV-1 Env of pseudovirus BJOX025000.01.1 (HIV-1)
# [9] = molecular target: HIV-1 Env of pseudovirus P0402_c2_11 (HIV-1)
# [10] = molecular target: HIV-1 Env of pseudovirus 6545.v4.c1 (HIV-1)
# [11] = molecular target: HIV-1 Env of pseudovirus 6811.v7.c18 (HIV-1)
# [12] = molecular target: HIV-1 Env of pseudovirus 211-9 (HIV-1)
# [13] = molecular target: HIV-1 Env of pseudovirus BJOX010000.06.2 (HIV-1)
# [14] = molecular target: HIV-1 Env of pseudovirus 3103.v3.c10 (HIV-1)
# [15] = molecular target: HIV-1 Env of pseudovirus 191955_A11 (HIV-1)
# [16] = molecular target: HIV-1 Env of pseudovirus X2131_C1_B5 (HIV-1)
# [17] = molecular target: HIV-1 Env of pseudovirus 3016.v5.c45 (HIV-1)
# [18] = molecular target: HIV-1 Env of pseudovirus 263-8 (HIV-1)
# [19] = molecular target: HIV-1 Env of pseudovirus T255-34 (HIV-1)
# [20] = molecular target: HIV-1 Env of pseudovirus BJOX015000.11.5 (HIV-1)
# [21] = molecular target: HIV-1 Env of pseudovirus X1254_c3 (HIV-1)
# [22] = molecular target: HIV-1 Env of pseudovirus 9004SS_A3_4 (HIV-1)
# [23] = molecular target: HIV-1 Env of pseudovirus P1981_C5_3 (HIV-1)
# [24] = molecular target: HIV-1 Env of pseudovirus 235-47 (HIV-1)
# [25] = molecular target: HIV-1 Env of pseudovirus 89-F1_2_25 (HIV-1)
# [26] = molecular target: HIV-1 Env of pseudovirus R1166.c01 (HIV-1)
# [27] = molecular target: HIV-1 Env of pseudovirus 6952.v1.c20 (HIV-1)
# [28] = molecular target: HIV-1 Env of pseudovirus 3817.v2.c59 (HIV-1)
# [29] = molecular target: HIV-1 Env of pseudovirus 231965.c01 (HIV-1)
# [30] = molecular target: HIV-1 Env of pseudovirus T251-18 (HIV-1)
# [31] = molecular target: HIV-1 Env of pseudovirus 6480.v4.c25 (HIV-1)
# [32] = molecular target: HIV-1 Env of pseudovirus BJOX028000.10.3 (HIV-1)
# [33] = molecular target: HIV-1 Env of pseudovirus 3301.v1.c24 (HIV-1)
# [34] = molecular target: HIV-1 Env of pseudovirus 928-28 (HIV-1)
# [35] = molecular target: HIV-1 Env of pseudovirus 0815.v3.c3 (HIV-1)
# [36] = molecular target: HIV-1 Env of pseudovirus A07412M1.vrc12 (HIV-1)
# [37] = molecular target: HIV-1 Env of pseudovirus C4118.c09 (HIV-1)
substance,measurement,setting,value
PGDM1400 (antibody),IC50 (Titer in TZM.bl cells),[1],0.001 µg/mL
same,IC80 (Titer in TZM.bl cells),[1],0.004 µg/mL
same,IC50 (Titer in TZM.bl cells),[2],0.004 µg/mL
same,IC80 (Titer in TZM.bl cells),[2],0.028 µg/mL
same,IC50 (Titer in TZM.bl cells),[3],0.003 µg/mL
same,IC80 (Titer in TZM.bl cells),[3],0.012 µg/mL
same,IC50 (Titer in TZM.bl cells),[4],0.009 µg/mL
same,IC80 (Titer in TZM.bl cells),[4],40.3 µg/mL
same,IC50 (Titer in TZM.bl cells),[5],0.013 µg/mL
same,IC80 (Titer in TZM.bl cells),[5],0.041 µg/mL
same,IC50 (Titer in TZM.bl cells),[6],0.011 µg/mL
same,IC80 (Titer in TZM.bl cells),[6],0.051 µg/mL
same,neutralization IC50,[7],0.002 µg/mL
same,neutralization IC80,[7],0.031 µg/mL
same,IC50 (Titer in TZM.bl cells),[8],0.087 µg/mL
same,IC80 (Titer in TZM.bl cells),[8],0.573 µg/mL
same,IC50 (Titer in TZM.bl cells),[9],0.01 µg/mL
same,IC80 (Titer in TZM.bl cells),[9],0.033 µg/mL
same,IC50 (Titer in TZM.bl cells),[10],0.003 µg/mL
same,IC80 (Titer in TZM.bl cells),[10],0.039 µg/mL
same,IC50 (Titer in TZM.bl cells),[11],> 50 µg/mL
same,IC80 (Titer in TZM.bl cells),[11],> 50 µg/mL
same,IC50 (Titer in TZM.bl cells),[12],0.088 µg/mL
same,IC80 (Titer in TZM.bl cells),[12],0.393 µg/mL
same,IC50 (Titer in TZM.bl cells),[13],0.605 µg/mL
same,IC80 (Titer in TZM.bl cells),[13],5.87 µg/mL
same,IC50 (Titer in TZM.bl cells),[14],0.671 µg/mL
same,IC80 (Titer in TZM.bl cells),[14],2 µg/mL
same,neutralization IC50,[15],0.001 µg/mL
same,neutralization IC80,[15],0.021 µg/mL
same,IC50 (Titer in TZM.bl cells),[16],0.128 µg/mL
same,IC80 (Titer in TZM.bl cells),[16],0.568 µg/mL
same,IC50 (Titer in TZM.bl cells),[17],> 50 µg/mL
same,IC80 (Titer in TZM.bl cells),[17],> 50 µg/mL
same,neutralization IC50,[18],0.02 µg/mL
same,neutralization IC80,[18],0.103 µg/mL
same,IC50 (Titer in TZM.bl cells),[19],0.654 µg/mL
same,IC80 (Titer in TZM.bl cells),[19],> 50 µg/mL
same,IC50 (Titer in TZM.bl cells),[20],0.52 µg/mL
same,IC80 (Titer in TZM.bl cells),[20],10.6 µg/mL
same,IC50 (Titer in TZM.bl cells),[21],> 50 µg/mL
same,IC80 (Titer in TZM.bl cells),[21],> 50 µg/mL
same,neutralization IC50,[22],< 0.001 µg/mL
same,neutralization IC80,[22],0.002 µg/mL
same,IC50 (Titer in TZM.bl cells),[23],0.104 µg/mL
same,IC80 (Titer in TZM.bl cells),[23],4.6 µg/mL
same,IC50 (Titer in TZM.bl cells),[24],0.005 µg/mL
same,IC80 (Titer in TZM.bl cells),[24],0.032 µg/mL
same,IC50 (Titer in TZM.bl cells),[25],0.001 µg/mL
same,IC80 (Titer in TZM.bl cells),[25],0.005 µg/mL
same,IC50 (Titer in TZM.bl cells),[26],1.43 µg/mL
same,IC80 (Titer in TZM.bl cells),[26],6.92 µg/mL
same,IC50 (Titer in TZM.bl cells),[27],0.501 µg/mL
same,IC80 (Titer in TZM.bl cells),[27],11.8 µg/mL
same,IC50 (Titer in TZM.bl cells),[28],> 50 µg/mL
same,IC80 (Titer in TZM.bl cells),[28],> 50 µg/mL
same,IC50 (Titer in TZM.bl cells),[29],0.025 µg/mL
same,IC80 (Titer in TZM.bl cells),[29],1.28 µg/mL
same,IC50 (Titer in TZM.bl cells),[30],8.62 µg/mL
same,IC80 (Titer in TZM.bl cells),[30],43.1 µg/mL
same,IC50 (Titer in TZM.bl cells),[31],> 50 µg/mL
same,IC80 (Titer in TZM.bl cells),[31],> 50 µg/mL
same,IC50 (Titer in TZM.bl cells),[32],0.072 µg/mL
same,IC80 (Titer in TZM.bl cells),[32],0.963 µg/mL
same,IC50 (Titer in TZM.bl cells),[33],0.048 µg/mL
same,IC80 (Titer in TZM.bl cells),[33],0.245 µg/mL
same,neutralization IC50,[34],0.22 µg/mL
same,neutralization IC80,[34],1.25 µg/mL
same,IC50 (Titer in TZM.bl cells),[35],> 50 µg/mL
same,IC80 (Titer in TZM.bl cells),[35],> 50 µg/mL
same,IC50 (Titer in TZM.bl cells),[36],0.032 µg/mL
same,IC80 (Titer in TZM.bl cells),[36],0.127 µg/mL
same,IC50 (Titer in TZM.bl cells),[37],0.002 µg/mL
same,IC80 (Titer in TZM.bl cells),[37],0.005 µg/mL
